Reference: the supplement of paper PMC9112550, “Optimization of the antimicrobial peptide Bac7 by deep mutational scanning” (BMC Biology, 2022)

System: Escherichia coli TOP10
Test: shrunken log2 fold change of peptide-encoding DNA abundance (4.5 h post-induction vs induction); higher = less antimicrobial activity (less host growth inhibition)
Settings: time post-induction: 4.5 h; library: site-saturation at positions 5, 18, 19, 20
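Also: peptides expressed intracellularly from a pBAD plasmid library in pooled LB shake-flask culture, induced with 0.3% L-arabinose, DNA abundance read by NGS, three biological replicates, DESeq2 with apeglm shrinkage.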

Sequence | shrunken log2 fold change
RRIRARPPRLPRPRPRPQNHPRP | -0.446
RRIRARPPRLPRPRPRPQQMPRP | 0.12
RRIRARPPRLPRPRPRPQTDPRP | 0.275
RRIRARPPRLPRPRPRPQTYPRP | 0.00151
RRIRARPPRLPRPRPRPQWQPRP | -0.00057
RRIRARPPRLPRPRPRPQWVPRP | 0.124
RRIRARPPRLPRPRPRPRAMPRP | 0.808
RRIRARPPRLPRPRPRPRCDPRP | 0.324
RRIRARPPRLPRPRPRPRDFPRP | 0.0137
RRIRARPPRLPRPRPRPREKPRP | 0.383
RRIRARPPRLPRPRPRPREPPRP | 0.199
RRIRARPPRLPRPRPRPRHFPRP | 0.157
RRIRARPPRLPRPRPRPRHLPRP | 0.11
RRIRARPPRLPRPRPRPRHWPRP | 0.511
RRIRARPPRLPRPRPRPRIGPRP | 0.267
RRIRARPPRLPRPRPRPRIPPRP | 0.0568
RRIRARPPRLPRPRPRPRKGPRP | 0.365
RRIRARPPRLPRPRPRPRLVPRP | 0.512
RRIRARPPRLPRPRPRPRMPPRP | 0.251
RRIRARPPRLPRPRPRPRNIPRP | 0.157
RRIRARPPRLPRPRPRPRPQPRP | 0.731
RRIRARPPRLPRPRPRPRPVPRP | 0.771
RRIRARPPRLPRPRPRPRQDPRP | 0.34
RRIRARPPRLPRPRPRPRQMPRP | 1.2
RRIRARPPRLPRPRPRPRQNPRP | 0.723

Sequence | shrunken log2 fold change
RRIRARPPRLPRPRPRPRQWPRP | 0.68
RRIRARPPRLPRPRPRPRSDPRP | 0.257
RRIRARPPRLPRPRPRPRTPPRP | 0.636
RRIRARPPRLPRPRPRPRVNPRP | 0.631
RRIRARPPRLPRPRPRPRVVPRP | 0.624
RRIRARPPRLPRPRPRPRWCPRP | 0.0438
RRIRARPPRLPRPRPRPRWFPRP | 0.623
RRIRARPPRLPRPRPRPRYRPRP | 0.165
RRIRARPPRLPRPRPRPSAGPRP | 0.65
RRIRARPPRLPRPRPRPSAIPRP | 0.173
RRIRARPPRLPRPRPRPSAWPRP | 0.797
RRIRARPPRLPRPRPRPSCDPRP | 0.323
RRIRARPPRLPRPRPRPSEMPRP | 0.29
RRIRARPPRLPRPRPRPSGHPRP | 0.168
RRIRARPPRLPRPRPRPSHCPRP | -0.101
RRIRARPPRLPRPRPRPSHKPRP | 0.0213
RRIRARPPRLPRPRPRPSLGPRP | 0.188
RRIRARPPRLPRPRPRPSMWPRP | 0.45
RRIRARPPRLPRPRPRPSNMPRP | -0.28
RRIRARPPRLPRPRPRPSPFPRP | 0.0195
RRIRARPPRLPRPRPRPSPHPRP | 0.187
RRIRARPPRLPRPRPRPSPTPRP | 0.328
RRIRARPPRLPRPRPRPSSQPRP | 0.144
RRIRARPPRLPRPRPRPSSYPRP | -0.342
RRIRARPPRLPRPRPRPSTSPRP | -0.322

Sequence | shrunken log2 fold change
RRIRARPPRLPRPRPRPSVRPRP | -0.0488
RRIRARPPRLPRPRPRPSVYPRP | -0.138
RRIRARPPRLPRPRPRPSWAPRP | 0.106
RRIRARPPRLPRPRPRPSYGPRP | -0.282
RRIRARPPRLPRPRPRPTAPPRP | 0.8
RRIRARPPRLPRPRPRPTAWPRP | 0.863
RRIRARPPRLPRPRPRPTCEPRP | 0.723
RRIRARPPRLPRPRPRPTCVPRP | 0.698
RRIRARPPRLPRPRPRPTEMPRP | -0.00782
RRIRARPPRLPRPRPRPTFLPRP | 0.113
RRIRARPPRLPRPRPRPTGIPRP | 0.0125
RRIRARPPRLPRPRPRPTHIPRP | 0.36
RRIRARPPRLPRPRPRPTHPPRP | 0.586
RRIRARPPRLPRPRPRPTHSPRP | 0.459
RRIRARPPRLPRPRPRPTIFPRP | 0.377
RRIRARPPRLPRPRPRPTITPRP | 0.187
RRIRARPPRLPRPRPRPTKLPRP | -0.00644
RRIRARPPRLPRPRPRPTMDPRP | -0.037
RRIRARPPRLPRPRPRPTNEPRP | 0.344
RRIRARPPRLPRPRPRPTPEPRP | 0.694
RRIRARPPRLPRPRPRPTQFPRP | 0.071
RRIRARPPRLPRPRPRPTQIPRP | 0.553
RRIRARPPRLPRPRPRPTSAPRP | 0.684
RRIRARPPRLPRPRPRPTTCPRP | 0.0733
RRIRARPPRLPRPRPRPTTIPRP | 0.0651

Sequence | shrunken log2 fold change
RRIRARPPRLPRPRPRPTVCPRP | 0.505
RRIRARPPRLPRPRPRPTVSPRP | 0.136
RRIRARPPRLPRPRPRPTYGPRP | -0.0482
RRIRARPPRLPRPRPRPVAFPRP | 0.457
RRIRARPPRLPRPRPRPVAHPRP | 0.159
RRIRARPPRLPRPRPRPVAIPRP | 0.111
RRIRARPPRLPRPRPRPVAMPRP | 0.383
RRIRARPPRLPRPRPRPVDAPRP | 1.28
RRIRARPPRLPRPRPRPVGDPRP | 0.515
RRIRARPPRLPRPRPRPVGNPRP | 0.0787
RRIRARPPRLPRPRPRPVHGPRP | 0.785
RRIRARPPRLPRPRPRPVICPRP | 0.408
RRIRARPPRLPRPRPRPVIVPRP | 0.142
RRIRARPPRLPRPRPRPVKHPRP | 0.0139
RRIRARPPRLPRPRPRPVMDPRP | 0.671
RRIRARPPRLPRPRPRPVNDPRP | 0.584
RRIRARPPRLPRPRPRPVNLPRP | 0.0654
RRIRARPPRLPRPRPRPVNVPRP | -0.169
RRIRARPPRLPRPRPRPVPCPRP | 0.341
RRIRARPPRLPRPRPRPVQGPRP | 0.47
RRIRARPPRLPRPRPRPVQPPRP | 0.392
RRIRARPPRLPRPRPRPVQTPRP | 0.264
RRIRARPPRLPRPRPRPVRWPRP | 0.88
RRIRARPPRLPRPRPRPVSEPRP | 0.338
RRIRARPPRLPRPRPRPVVLPRP | 0.463

Sequence | shrunken log2 fold change
RRIRARPPRLPRPRPRPVWHPRP | 0.324
RRIRARPPRLPRPRPRPVWMPRP | 0.0552
RRIRARPPRLPRPRPRPWCPPRP | -0.169
RRIRARPPRLPRPRPRPWCTPRP | -0.284
RRIRARPPRLPRPRPRPWDDPRP | 0.177
RRIRARPPRLPRPRPRPWENPRP | 0.0143
RRIRARPPRLPRPRPRPWFFPRP | 0.089
RRIRARPPRLPRPRPRPWFWPRP | 0.544
RRIRARPPRLPRPRPRPWGLPRP | 0.617
RRIRARPPRLPRPRPRPWHKPRP | 0.0323
RRIRARPPRLPRPRPRPWMKPRP | -0.172
RRIRARPPRLPRPRPRPWPTPRP | 0.703
RRIRARPPRLPRPRPRPWREPRP | -0.0619
RRIRARPPRLPRPRPRPWRSPRP | 0.143
RRIRARPPRLPRPRPRPWSFPRP | -0.00357
RRIRARPPRLPRPRPRPWTPPRP | 0.123
RRIRARPPRLPRPRPRPWVFPRP | 0.276
RRIRARPPRLPRPRPRPWVPPRP | -0.146
RRIRARPPRLPRPRPRPWVQPRP | -0.0652
RRIRARPPRLPRPRPRPWYCPRP | -0.306
RRIRARPPRLPRPRPRPYAQPRP | -0.181
RRIRARPPRLPRPRPRPYASPRP | -0.245
RRIRARPPRLPRPRPRPYCPPRP | -0.585
RRIRARPPRLPRPRPRPYFNPRP | -0.71
RRIRARPPRLPRPRPRPYKIPRP | -0.455

Sequence | shrunken log2 fold change
RRIRARPPRLPRPRPRPYKLPRP | -0.467
RRIRARPPRLPRPRPRPYKMPRP | -0.821
RRIRARPPRLPRPRPRPYKRPRP | -0.23
RRIRARPPRLPRPRPRPYLEPRP | 0.982
RRIRARPPRLPRPRPRPYLRPRP | -0.228
RRIRARPPRLPRPRPRPYLVPRP | 0.0333
RRIRARPPRLPRPRPRPYMGPRP | 0.0124
RRIRARPPRLPRPRPRPYNHPRP | -0.402
RRIRARPPRLPRPRPRPYPAPRP | -0.146
RRIRARPPRLPRPRPRPYQFPRP | -0.34
RRIRARPPRLPRPRPRPYQIPRP | -0.385
RRIRARPPRLPRPRPRPYSRPRP | -0.0171
RRIRARPPRLPRPRPRPYTGPRP | -0.645
RRIRARPPRLPRPRPRPYVLPRP | -0.347
RRIRARPPRLPRPRPRPYWRPRP | -0.096
RRIRARPPRLPRPRPRPYYHPRP | -1.02
RRIRCRPPRLPRPRPRPAAEPRP | 0.829
RRIRCRPPRLPRPRPRPAAYPRP | -0.101
RRIRCRPPRLPRPRPRPACFPRP | 0.0497
RRIRCRPPRLPRPRPRPADHPRP | 0.0117
RRIRCRPPRLPRPRPRPADRPRP | -0.0122
RRIRCRPPRLPRPRPRPAEEPRP | -0.314
RRIRCRPPRLPRPRPRPAFWPRP | 0.232
RRIRCRPPRLPRPRPRPAGCPRP | 0.262
RRIRCRPPRLPRPRPRPAGPPRP | 0.116
